Measurements as given in paper PMC10615782.
pKd: −log10 of the molar value.

Molecular target: Chikungunya virus-like particles (strain 37997) (chikungunya virus) (UniProt Q8JUX5)
Experiment: BLI

Question: How did the pKd turn out when “Monovalent mouse MXRA8 cleaved from the Fc fusion (from UniProt Q9DBV4 22-336) (domain or fragment)” was run?
Answer: The pKd was 7.17.
